From US20190284266A1

What was measured:
[1] = molecular target: total tau of Alzheimer's disease brain extract (human) (UniProt P10636); experiment: immunodepletion of AD brain extract with antibody on Protein G magnetic beads; remaining total tau by Tau5 western blot, normalised to gapdh
[2] = molecular target: hyperphosphorylated (pathological) tau from human Alzheimer's disease brain, phosphorylated at serine 396 (human) (UniProt P10636); experiment: binding of pathological versus non-pathological tau, brain material (Table 5)
[3] = molecular target: hyperphosphorylated human tau P301L (0N4R) of rTg4510 mice, 64 kDa and 70 kDa species (human) (UniProt P10636); experiment: as above
[4] = molecular target: tau phosphorylated at Serine 199/202 in Alzheimer's disease brain extract (human) (UniProt P10636); experiment: immunodepletion of AD brain extract with 5 µg antibody on beads, P-S199/202 western blot
[5] = molecular target: total tau of Alzheimer's disease brain extract (human) (UniProt P10636); experiment: immunodepletion of AD brain extract with antibody-coated beads, Tau5 western blot
[6] = molecular target: hyperphosphorylated (pathological) tau from human Alzheimer's disease brain, phosphorylated at serine 396 (human) (UniProt P10636); experiment: immunodepletion of AD brain extract with antibody-coated beads, pS396 western blot
[7] = molecular target: tau phosphorylated at Serine 422 in Alzheimer's disease brain extract (human) (UniProt P10636); experiment: immunodepletion of AD brain extract with antibody-coated beads, P-S422 western blot
[8] = molecular target: hyperphosphorylated (pathological) tau from human Alzheimer's disease brain, phosphorylated at serine 396 (human) (UniProt P10636); experiment: MSD fluid phase inhibition: antibody pre-incubated with AD-P3, capture on coated mouse C10-2 (competitor); two-site fit, low affinity part (predominant); two-site fit, low affinity part (predominant)
[9] = molecular target: hyperphosphorylated (pathological) tau from human Alzheimer's disease brain, phosphorylated at serine 396 (human) (UniProt P10636); experiment: immunodepletion of AD brain extract, pS396 western blot, 75 ng antibody
[10] = molecular target: tau phosphorylated at Serine 199/202 in Alzheimer's disease brain extract (human) (UniProt P10636); experiment: immunodepletion of AD brain extract with antibody-coated beads, P-S199/202 western blot
[11] = molecular target: hyperphosphorylated (pathological) tau from human Alzheimer's disease brain, phosphorylated at serine 396 (human) (UniProt P10636); experiment: MSD fluid phase inhibition of Ptau antigen capture on C10-2 coated plate (competitor C10-2); upper end of the printed range 10-20 nM
[12] = molecular target: hyperphosphorylated (pathological) tau from human Alzheimer's disease brain, phosphorylated at serine 396 (human) (UniProt P10636); experiment: MSD fluid phase inhibition of AD-P3 capture, two-site fit
[13] = molecular target: hyperphosphorylated human tau P301L (0N4R) of rTg4510 mice, 64 kDa and 70 kDa species (human) (UniProt P10636); experiment: cell-based or functional assay
[14] = molecular target: hyperphosphorylated (pathological) tau from human Alzheimer's disease brain, phosphorylated at serine 396 (human) (UniProt P10636); experiment: MSD fluid phase inhibition of Ptau antigen capture on C10-2 coated plate (competitor C10-2); lower end of the printed range 10-20 nM
[15] = molecular target: hyperphosphorylated (pathological) tau from human Alzheimer's disease brain, phosphorylated at serine 396 (human) (UniProt P10636); experiment: immunodepletion of AD brain extract with antibody on Protein G magnetic beads; remaining P-S396 tau by western blot, normalised to gapdh
[16] = molecular target: hyperphosphorylated (pathological) tau from human Alzheimer's disease brain, phosphorylated at serine 396 (human) (UniProt P10636); experiment: MSD fluid phase inhibition: antibody pre-incubated with AD-P3, capture on coated mouse C10-2 (competitor); two-site fit, high affinity part; two-site fit, high affinity part (less than 25% of total binding)
[17] = molecular target: hyperphosphorylated (pathological) tau from human Alzheimer's disease brain, phosphorylated at serine 396 (human) (UniProt P10636); experiment: MSD fluid phase inhibition of Ptau antigen capture on C10-2 coated plate (competitor C10-2)
Antibody N32S, A101T = experiment: MSD peptide inhibition: 1 ng/ml antibody pre-incubated with graded Ptau 386-408 (pS396), then wells coated with Ptau 386-408 (pS396/pS404) (competitor)
Antibody N32S = experiment: as above

Substance: 2.10.3 antibody
- EC50 (read off the curve) [1]: 0.3 µg
- AD/ctrl (ratio of binding to AD brain tau over control brain tau) [2]: 5 fold
- TG/wt (ratio of binding to transgenic over wild type mouse brain tau) [3]: 2 fold
- max percent reduction of pS199/202 tau [4]: 52%
- percent of total tau removed [5]: < 24%
- amount of antibody for half of the max effect [6]: 0.63 µg
- max effect, percent of pS396 tau removed [6]: 60%
- percent of pS396 tau removed [6]: 55%
- amount of antibody required to remove 50% of the pS422 tau [7]: 0.42 µg
- percent of pS422 tau removed [7]: > 90%

Substance: Anti-Tau Therapeutic Antibody NI-105-4E4
- TG/wt (ratio of binding to transgenic over wild type mouse brain tau) [3]: 1 fold

Substance: Antibody C10-2 (humanized C10-2)
- IC50 [8]: 630 nM
- AD/ctrl (ratio of binding to AD brain tau over control brain tau) [2]: > 100 fold
- TG/wt (ratio of binding to transgenic over wild type mouse brain tau) [3]: 118 fold
- percent decrease in the pS396 signal at 75 ng antibody [9]: < 6%
- amount of antibody for 50% of the effect [10]: 0.34 µg
- percent of pS199/202 tau removed [10]: 69%
- IC50 [11]: < 20 nM
- share of high affinity binding in the total binding [12]: < 25%
- amount of antibody for half of the max effect [6]: 0.3 µg
- max effect, percent of pS396 tau removed [6]: 88%
- decrease in aggregated tau in HEK293 cells expressing hTau-P301L seeded with Tg4510 homogenate pre-incubated with antibody (Cisbio tau aggregation assay) [13]: 40%
- reduction of P3 and S1p induced tau seeding in rTg4510 cortical neurons (Cisbio tau aggregation assay) [13]: 23%
- IC50 [14]: > 10 nM
- EC50 (read off the curve) [15]: 0.2 µg
- amount of antibody required to remove 50% of the pS422 tau [7]: 0.27 µg
- percent of pS422 tau removed [7]: > 90%
- IC50 [16]: 14 nM

Substance: HJ8.5 (antibody)
- TG/wt (ratio of binding to transgenic over wild type mouse brain tau) [3]: 51 fold

Substance: IPN002 (antibody)
- TG/wt (ratio of binding to transgenic over wild type mouse brain tau) [3]: 37 fold

Substance: PHF-13 (antibody)
- IC50 [17]: 500 to 1000 nM

Substance: Ptau 386-408 (pS396) peptide
- IC50 (Antibody N32S, A101T): 34 nM
- IC50 (Antibody N32S): 50 nM
